This is an account of results in PMC10835137 (2024).

This experiment concerns the target T1, IRBP 271-290 (P2) peptide on I-A^b (mouse).
T1 peptide: QTWEGSGVLPCVG
Kind of experiment: multimer staining.

B1: 5 (TCR)
alpha TRAV9-2 TRAJ31 CDR3: CVLSAGNNRIFF
beta TRBV20 TRBJ2-2 CDR3: CGASGPANTGQLYF
Regarding B1, the binding result is “recognises”.

B2: 4 (TCR)
alpha TRAV9-4 TRAJ31 CDR3: CAVSPHSNNRIFF
beta TRBV2 TRBJ2-7 CDR3: CASSQEGLGGLGEQYF
In the case of B2, the binding result is “recognises”.

B3: 1 (TCR)
alpha TRAV12D-3 TRAJ13 CDR3: CALRAGSGTYQRF
beta TRBV3 TRBJ2-7 CDR3: CASSLAGTGVYEQYF
With B3, the binding result is recorded as “recognises”.

B4: 3 (TCR)
alpha TRAV16N TRAJ15 CDR3: CAMREGGGGRALIF
beta TRBV15 TRBJ2-3 CDR3: CASSWGRGAETLYF
With B4, the binding result is “recognises”.

B5: 2 (TCR)
alpha TRAV12-2 TRAJ47 CDR3: CALSVYANKMIF
beta TRBV23 TRBJ2-4 CDR3: CSSSQTTNQNTLYF
For the molecule B5, the binding result is reported as “recognises”.
